Data on two molecules can be found in paper doi:10.1101/2023.07.10.548322.

Holding throughout (assay): SPR
A general note: SPR reads the build-up and loss of mass on a sensor chip optically.

The target in series [1] is alpha-synuclein (aSyn) WT (human, UniProt P37840 1-140).
Series [2] concerns the target aSyn dNAC (UniProt P37840 1-140, del61-95).
For series [3], the target named is aSyn dCterm (UniProt P37840 1-95, del96-140).

UUACCGUUACCGUUACCGUUACCG (ssRNA) [G4mt biotin]: in series [1], the binding result is given as “no binding”.

A word on the Kd: it is the equilibrium constant for the complex coming apart. A low value points to a tighter complex. As for UUAGGGUUAGGGUUAGGGUUAGGG (structured_RNA) [G4tr biotin], the binding result in series [2] and in series [3] was “binds” throughout. In addition, in series [1], binding was characterised by a dissociation constant (Kd) of 3.63 ± 0.63 µM.
